From PMC8245419, “Structure-based insights into evolution of rhodopsins” (Communications Biology, 2021)
Blank lines part the entries; values can stand above or below the compound they belong to.

Key:
LR (Mac), LR 1–313 = molecular target: T1, LR (Mac), LR 1–313 (Plenodomus lingam, UniProt Q9HGT7); test: X-ray crystallography, […] Å; assay type: binding; details: covalent; retinal Schiff base at K270; pH 7.0
T1 construct: gene ops; full-length 1-313, C-terminal polyhistidine tag, codon-optimised synthetic gene, expressed in Leishmania tarentolae (LEXSY), DDM; likely trimer; residues 42-286 resolved
T1 sequence (Q9HGT7 1-313): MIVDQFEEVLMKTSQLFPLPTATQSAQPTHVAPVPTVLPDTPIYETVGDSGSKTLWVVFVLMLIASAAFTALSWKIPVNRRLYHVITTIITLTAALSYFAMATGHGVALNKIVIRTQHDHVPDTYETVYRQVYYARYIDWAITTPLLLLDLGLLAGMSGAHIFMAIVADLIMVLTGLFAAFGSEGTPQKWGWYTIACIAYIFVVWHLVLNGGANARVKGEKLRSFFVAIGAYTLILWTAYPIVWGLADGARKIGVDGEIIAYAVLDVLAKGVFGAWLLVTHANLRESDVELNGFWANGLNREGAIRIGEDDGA

LR 49–313 = molecular target: T2, LR 49–313 (Plenodomus lingam, UniProt Q9HGT7); test: time-resolved absorption spectroscopy (photocycle); assay type: binding; details: covalent; DDM micelles; 5 μM all-trans-retinal added at solubilization
T2 construct: gene ops; N-terminally truncated 49-313, C-terminal polyhistidine tag, codon-optimised synthetic gene, expressed in Leishmania tarentolae (LEXSY), DDM; mostly monomer
T2 sequence (Q9HGT7 49-313): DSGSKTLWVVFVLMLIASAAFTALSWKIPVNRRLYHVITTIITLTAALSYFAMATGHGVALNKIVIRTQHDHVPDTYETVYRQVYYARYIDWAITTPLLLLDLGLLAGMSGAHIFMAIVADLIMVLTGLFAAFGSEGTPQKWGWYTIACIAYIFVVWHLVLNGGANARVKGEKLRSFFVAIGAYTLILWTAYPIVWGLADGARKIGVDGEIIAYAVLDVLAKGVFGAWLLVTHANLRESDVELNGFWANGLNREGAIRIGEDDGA

[1] = molecular target: Leptosphaeria rhodopsin LR (Mac), full-length (residues 1–313) (Leptosphaeria maculans); test: SEC; Superdex 200 Increase 10/300 GL, 0.05% DDM micelles; masses calculated from retention volume at pH 8.0 (results; the methods give a SEC buffer of pH 6.5, 0.2 M NaCl); trimer to monomers
[2] = molecular target: Leptosphaeria rhodopsin LR (Mac), full-length (residues 1–313) (Leptosphaeria maculans); test: cross-linking; glutaraldehyde vapor for 30 min, then gradient SDS-PAGE 18.5-8%; protein in DDM micelles; untreated samples as control
[3] = molecular target: Leptosphaeria rhodopsin LR, N-terminally truncated (residues 49–313) (Leptosphaeria maculans); test: SEC; Superdex 200 Increase 10/300 GL, 0.05% DDM micelles; masses calculated from retention volume at pH 8.0 (results; the methods give a SEC buffer of pH 6.5, 0.2 M NaCl); trimer to monomers
[4] = molecular target: Leptosphaeria rhodopsin LR, N-terminally truncated (residues 49–313) (Leptosphaeria maculans); test: cross-linking; glutaraldehyde vapor for 30 min, then gradient SDS-PAGE 18.5-8%; protein in DDM micelles; untreated samples as control

Compound: CC1=C(/C=C/C(C)=C/C=C/C(C)=C/C=O)C(C)(C)CCC1 [ATR, all-trans-retinal]
X-ray crystallography, 2.2 Å (LR (Mac), LR 1–313): retinal chromophore covalently attached to the K270 on the TM7
time-resolved absorption spectroscopy (photocycle) (LR 49–313): Both full-length and truncated constructs of LR in DDM micelles exhibit almost similar relaxation time

ratio between monomers and trimers (monomers:trimers) [1]: 0.4
stoichiometry N [1]: 3
stoichiometry N [2]: < 3
Compound: Leptosphaeria rhodopsin LR (Mac), full-length (residues 1–313) (natural protein)

ratio between monomers and trimers (monomers:trimers) [3]: 40
stoichiometry N [3]: 3
stoichiometry N [4]: < 3
Compound: Leptosphaeria rhodopsin LR, N-terminally truncated (residues 49–313) (domain or fragment)
